Source: patent publication US6395306 (PAN PACIFIC PHARMACEUTICALS, dated 2002)

Target: T1, CXCR2 (human, UniProt P25025 1-360)
T1 sequence: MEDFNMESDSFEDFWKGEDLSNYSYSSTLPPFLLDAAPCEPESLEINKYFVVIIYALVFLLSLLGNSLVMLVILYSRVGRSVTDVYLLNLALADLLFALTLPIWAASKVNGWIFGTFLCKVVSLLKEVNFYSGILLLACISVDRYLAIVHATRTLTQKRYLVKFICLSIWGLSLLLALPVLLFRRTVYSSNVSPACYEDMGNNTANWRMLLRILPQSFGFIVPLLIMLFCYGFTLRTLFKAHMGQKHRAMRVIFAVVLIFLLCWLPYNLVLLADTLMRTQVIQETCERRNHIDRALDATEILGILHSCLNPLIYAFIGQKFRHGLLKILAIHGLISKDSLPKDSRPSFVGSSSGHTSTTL

B1: PX3.101 protein purified from honeybee venom (other)
chain: GGFGGFGGFGGLGGRGKCPSNEIFSRCDGRCQRFCPNVVPKPLCIKICAPGCVCRLGYLRNKKKVCVPRSKCG
In the case of B1, the IC50 is reported as 500 nM.
